Measurements published in PMC2582629 (Nucleic Acids Research, 2008).

Target: T1, mouse mMLH1 (mouse, UniProt Q9JK91 1-760)
T1 sequence (looked up): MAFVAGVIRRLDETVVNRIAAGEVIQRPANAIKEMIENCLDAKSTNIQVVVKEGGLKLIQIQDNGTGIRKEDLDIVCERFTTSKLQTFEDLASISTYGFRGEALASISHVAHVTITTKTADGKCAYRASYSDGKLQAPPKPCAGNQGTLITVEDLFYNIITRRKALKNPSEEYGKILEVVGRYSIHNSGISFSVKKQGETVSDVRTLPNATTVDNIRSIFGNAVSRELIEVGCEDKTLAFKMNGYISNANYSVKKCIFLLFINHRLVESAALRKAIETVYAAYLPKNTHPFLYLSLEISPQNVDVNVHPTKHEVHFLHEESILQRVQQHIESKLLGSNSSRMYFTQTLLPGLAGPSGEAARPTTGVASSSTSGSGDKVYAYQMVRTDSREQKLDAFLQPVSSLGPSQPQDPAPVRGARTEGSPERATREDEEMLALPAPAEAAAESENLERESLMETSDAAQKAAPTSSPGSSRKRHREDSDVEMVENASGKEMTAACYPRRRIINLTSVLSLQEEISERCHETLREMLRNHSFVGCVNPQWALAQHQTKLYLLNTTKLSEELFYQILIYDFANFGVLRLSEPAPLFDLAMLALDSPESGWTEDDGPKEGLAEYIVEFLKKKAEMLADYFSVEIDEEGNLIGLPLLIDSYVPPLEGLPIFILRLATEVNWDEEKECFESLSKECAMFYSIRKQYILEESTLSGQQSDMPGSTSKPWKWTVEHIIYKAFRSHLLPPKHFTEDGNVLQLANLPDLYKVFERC
Assay: pull-down

B1: GST-hRad9 (natural protein, human, UniProt Q99638 1-391, looked up)
chain: MKCLVTGGNVKVLGKAVHSLSRIGDELYLEPLEDGLSLRTVNSSRSAYACFLFAPLFFQQYQAATPGQDLLRCKILMKSFLSVFRSLAMLEKTVEKCCISLNGRSSRLVVQLHCKFGVRKTHNLSFQDCESLQAVFDPASCPHMLRAPARVLGEAVLPFSPALAEVTLGIGRGRRVILRSYHEEEADSTAKAMVTEMCLGEEDFQQLQAQEGVAITFCLKEFRGLLSFAESANLNLSIHFDAPGRPAIFTIKDSLLDGHFVLATLSDTDSHSQDLGSPERHQPVPQLQAHSTPHPDDFANDDIDSYMIAMETTIGNEGSRVLPSISLSPGPQPPKSPGPHSEEEDEAEPSTVPGTPPPKKFRSLFFGSILAPVRSPQGPSPVLAEDSEGEG
binding result: binds
